± gives the half width of the 95% confidence interval.
Key:
[1] = folding stability dG unfold from trypsin proteolysis; higher = more stable
Description: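 Folding stability of de novo designed mini-proteins (<80 aa, no Cys; designed by TrROS, TrMRF, ProteinMPNN and the joint model) was measured by cDNA display proteolysis with trypsin and chymotrypsin. Each protease was used at 11 concentrations in a threefold dilution series plus a no-protease condition. K50 was inferred by Bayesian fitting of sequencing counts, and dG unfold was derived against a sequence-predicted unfolded-state K50 (Tsuboyama et al. method). Sequences shown include variable-length N-terminal GS-type padding (SAGGSAGG...) inside a display construct carrying a PA tag. Rows were kept only if the AF2 dimer inter-PAE was >15, to exclude likely homo-oligomers.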

[2] = folding stability dG unfold (combined trypsin and chymotrypsin); higher = more stable
Procedure, shortened: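 Digests were run with trypsin and chymotrypsin at 11 concentrations in threefold dilutions, plus a no-protease condition, on designed mini-proteins in a PA-tagged cDNA display construct. The mini-proteins were under 80 residues, had no cysteine, and were kept only when AlphaFold2 dimer inter-PAE was above 15. After sequencing, Bayesian fitting of the counts gave K50, from which unfolding free energy was derived against a sequence-predicted unfolded-state K50 and a shared folded-state K50, per protease or combined.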

Sequence	folding stability dG unfold [1] [kcal/mol]	folding stability dG unfold [2] [kcal/mol]
SAGGTPIGDGQTGESSTFDEEVTDPVTGEKVKVKVTIPVTIDPETGKTVRTVTITNPLEGKTTTTLTLSAGG [r13_262_JUSTAS]	-0.379 ± 0.13	< -1
SAGGSAGGKIEIFDQDQHDEMNQENGMPPKNYWMIRINGKPTAILPPDKPLTPNTIKNLIKEGLSAGGSAGG [r6_243_TrROS]	0.447 ± 0.15	-0.799 ± 0.8
SAGGSAGSMSIEEVVEKAKEEGIEVEVTSLPESGLTVVTITKKLPNGEVVESIILEHPEGTTTVLSSAGGSA [r15_1051_JUSTAS]	0.644 ± 0.057	0.0134 ± 0.14
SAGGSAMIRTFNIKFPGKSEEEALEAIKNLPEEVTEKIEEVKVEEIKKEGDSIYVKLTIKVPKEILSAGGSA [r15_244_JUSTAS]	0.636 ± 0.19	0.00147 ± 0.51
SAGGSAGGSAGGEPVSFLVKTPEDRWYPAVAIPETGEVLVEVPNEVRVLPADAEFEVSPASAGGSAGGSAGG [r7_434_TrMRF]	-0.0127 ± 0.11	< -1
SAGGGVTREIPITIKTSEGEPEETITVPAKSREEVDPETGRPVSSVDPGSIEEIKAKLPSSVTSVVLSAGGS [r16_522_JUSTAS]	-0.68 ± 0.077	< -1
SAGGSAGGSAGPKPIEFEDPDNGRKIEYWPEENQISIENPGDGKEKEYPMDSPEELKEWMSAGGSAGGSAGG [r11_936_TrROS]	0.117 ± 0.17	< -1
SAGGSAGGSAGGTAKELVNEIAKEFMQDHPNQEIPIEVEVRTNGKPVKAEIPIRLPPGQSAGGSAGGSAGGS [r10_1204_TrROS]	-0.402 ± 0.07	< -1
SAGGSSMLSPSESLPLPPDEDVEVSLPSPLSAKLTYDPATGTVSVTVTDPNNPGVPLSSTTRPLTASAGGSA [r2_266_JUSTAS]	0.662 ± 0.037	-0.203 ± 0.22
SAGGSAGGSAGPKPEYIRIKIEMWNPDGNPREHDFTFPPGHKDQIENLADNYGFRVSIEKSAGGSAGGSAGG [r11_603_TrROS]	0.278 ± 0.13	-0.281 ± 0.29
SAGGSAGGSGSMAEVEAIVERAKELGLVPKSITTDPATNKPVVDLQPPSPELLEADPEILALLSAGGSAGGS [r12_482_JUSTAS]	-0.585 ± 0.23	< -1
SAGGSAGGSEPDFVVVDIPFPPDVPLEALVEFARSLPSVVVNLVDEEGRPVSIALPREAVERLASAGGSAGG [r6_791_TrMRF]	-0.347 ± 0.15	< -1
SAGGSAGGSAGGRTIHINGATPERIIKWLKEWPPDEPVEIHYHGPNNKHREIPIDELKKSAGGSAGGSAGGS [r10_732_TrROS]	-0.0271 ± 0.1	-0.669 ± 0.38
SAGGSAGGKKVFLPYSVISTVVPKHFPGDEKQALIDAEFLAKKAEEAGFKDVDFVISPVPPGAPSAGGSAGG [r6_545_TrMRF]	-0.467 ± 0.23	-0.938 ± 0.27
SAGGSAGGSAGGDSSAPKPVIVEEGSVILEVKRDPKHGVITILSRNPLGGELITYEIPRSAGGSAGGSAGGS [r10_427_JUSTAS]	-0.563 ± 0.28	< -1
SAGGSAGGSASSSVTITNRVTNPDTGLRYITIPSKGERVTLSPDESATIPVPPDAPVSVLGSSAGGSAGGSA [r18_329_JUSTAS]	-0.694 ± 0.24	< -1
SARPLTIMNPDGMMYRLDPDEGEIEFQNASDGEELKIKVKPKGNGVEIDIEFNGQPHEHKIPKGDWIMIPSA [r9_239_TrROS]	0.662 ± 0.088	0.157 ± 0.33
SAGGSAGGSAGGGENVTTEEKVLEVSYDPSKNSYSTLVKVTVKYPNGTTEEFEVVEEKLSAGGSAGGSAGGS [r10_1214_JUSTAS]	0.334 ± 0.042	-0.0354 ± 0.21
SAGGGNMKTITVPASAVTSITRSPTNPNTLTITVSGSGATTTTTLPITPETKITEEGDTVTVTIPGLSAGGS [r16_22_JUSTAS]	0.312 ± 0.037	-0.263 ± 0.096
SAGGSAPNEEITIPIRIRVENPEDGKPIHEIPIPIKVPKGQTQDQILDQAKNWMEEHGMKIKEIEISAGGSA [r15_195_TrROS]	-1.32 ± 0.86	< -1
SAGGSAGGSAGGMYVIKITMGDRPRSIMVPPDNPEEIKNQLRDLGYNIKEISVERFPPGSAGGSAGGSAGGS [r10_405_TrROS]	-0.749 ± 0.61	-0.787 ± 0.56
SAGGSAGGSPPYIRVKIEFQNPNGQERKFKITIPPDQPLSQAKDIAPDFAKNGYPVRIEDIEISAGGSAGGS [r12_804_TrROS]	-0.209 ± 0.17	< -1
SMPKVVKTVKITKSEAKEFLEKLDIGPDKSVTILETDPNGKSSLHTIGPNKILSSEPVDTLPNTWTIEISSA [r9_849_JUSTAS]	-0.0776 ± 0.13	-0.416 ± 0.35
SAGGSAGGSMKVITVPLPDGGTTTYEVEKGKVTITYPPSVTKEIEVPDPSKAIENIETVSYKSSAGGSAGGS [r12_32_JUSTAS]	-0.76 ± 0.13	< -1

Sequence	folding stability dG unfold [1] [kcal/mol]	folding stability dG unfold [2] [kcal/mol]
SKKWKVDLDIQEDPDNGTVIGMVRVESEDGEKRPPPEEIARELAEKLREKGYKVEAEPHPGWFMITVKPPSA [r9_510_TrROS]	0.371 ± 0.24	0.153 ± 0.48
SAGGPNIEIEQERHPDDGMWTINVKWDNPAEIVEEIAKEIREQNRDIPIMITGPDGNPIMIPLDDIRSAGGS [r8_236_TrROS]	0.177 ± 0.049	-0.817 ± 0.39
SAGGSAGGSAMLKVTVKVPGTSKDYDFNVPESVGKEEAEKRLEEEYPGAEVTEIVEIPGEELSAGGSAGGSA [r18_242_JUSTAS]	0.545 ± 0.027	-0.469 ± 0.26
SAGKVEVKVDEETGTVTVTVEVNGELVEKKVEVKPPPPVKVFSAEELRERNPELKKLLEENPDKLVVLESAG [r5_957_TrROS_Hall]	-0.473 ± 0.26	< -1
SAGGKWYVMVKYEWRNPDNGKERNIQVPINREALQEGDLEEAVEEAKKFAREWGYPIKKVEINLMPPGSAGG [r13_954_TrROS]	-0.106 ± 0.17	-0.232 ± 0.46
SAGGSAGGSAGGSGMPQPTTVLTTEYYPPGVVVKKDIVYSPSGGAEEVEVSFYPSPELLSAGGSAGGSAGGS [r4_57_JUSTAS]	-1.08 ± 0.2	< -1
SAGGSAGGSAGTSTTVTEKPDPNSNRTYTTTTVERTTADGTTTTVTTTVYPDSTTSTTTASAGGSAGGSAGG [r11_987_JUSTAS]	0.557 ± 0.094	0.0978 ± 0.2
SAGGSAIKITKVEYEPNPDGWREIHFKATPGDPDFLDEIAEALPPDNIEPTEVDEKGYYEIRIPRPSAGGSA [r15_386_TrROS]	0.0955 ± 0.058	-0.291 ± 0.17
SAGGSAGGSAGGKKTIWIPVKIEPVPDGVRIKFPDGNPIIIPPNHKVEHTPGWMRITLDSAGGSAGGSAGGS [r10_305_TrROS]	-0.293 ± 0.18	-0.908 ± 0.86
SAGGSAGGSAGGSGSMVVEKVSPEPNVTKTIFFEPPEEGLVITVETLEGDTWSSQIILQSAGGSAGGSAGGS [r4_484_JUSTAS]	0.657 ± 0.097	-0.0129 ± 0.3
SAGGSAGGSGKTIIIPLPNGNVIKVEVEEGSVKITYPKPKKELIKVENPKNALKNIKTYSYKGSAGGSAGGS [r12_32_TrMRF]	-0.176 ± 0.32	< -1
SAGGSAVPPSANVGPLKEKIEVTEDPEKGTKTYTRVLKDPATGKTIVETSVIPPDGSVTLVKTVLVSAGGSA [r15_146_JUSTAS]	-0.0156 ± 0.073	-0.307 ± 0.12
SAGGSAGGSAGGMTETLDFNGEKVVVTELPPTNTYQVTTTTPGTGVPTTTAARKEEVLTSAGGSAGGSAGGS [r10_482_JUSTAS]	0.443 ± 0.045	-0.177 ± 0.28
SAGGSAGGSMERLENGIERIRLLVRFPERDEVRLIEIPLDNVTPEEIIERARELGAEEIELLESAGGSAGGS [r12_792_TrMRF]	0.11 ± 0.26	-0.545 ± 0.22
SAGGMTFVKVKPAPVKFGEGDKEYWVVEIVKVLEVEDVGEKPVVKAEKETIIIPKDNPDALKEAGIDASAGG [r13_670_TrMRF]	-1.02 ± 0.22	< -1
SAGGSAGGSAGGSIEIDVNPEAGQLKIEIEMPMPNPNGKPRGPMRMEQEFRIDDPEDIKSAGGSAGGSAGGS [r4_10_TrROS]	-0.641 ± 0.33	< -1
SAGGSAGGSAGGSALDRPVPVLVTGSIPLDGKFEDALGAAKAIEEEFAPYGYIVLSDVHVSAGGSAGGSAGG [r17_197_TrMRF]	0.297 ± 0.048	-0.0552 ± 0.12
SAGGGKIKKPKPIVIRVPKNSIKVGDDVPVAVLAKALGIDPSAKAKVGEVKPPENGDYELVVVEVESSAGGS [r16_165_TrMRF]	-0.508 ± 0.34	< -1
SAGGSAGGSAGGKVLVRFPTGEVPEVVEIDVPFEAGDPEKAKEIADELLAKGAEEVVLEDSAGGSAGGSAGG [r11_196_TrMRF]	0.117 ± 0.056	-0.328 ± 0.35
SAGGSAGGSAGGGKDVPVIAVPAGDEEAAEEFARRLVAELERRTGKPAGDIPVDFVEVESAGGSAGGSAGGS [r10_1216_TrMRF]	-0.243 ± 0.2	-0.886 ± 0.84
SAGGSAGGSMEIVSTGSKEDAEEAVKEKVAAGEKARVVLRSPTDPTPVSEEEVTISEEELKEASAGGSAGGS [r12_241_JUSTAS]	-1.61 ± 0.88	< -1
SAGGSAGGSMPVEVKFTVEKDPSTDLLTVTVTRPGGEVTPITYPDPNNLEAAKAAAEALAKASSAGGSAGGS [r12_1012_JUSTAS]	0.365 ± 0.076	-0.2 ± 0.41
SAGGSAGGSAGGSALDPSAKVTVDRGDGKLVAVHVYPPGGKPVVILLPEEDAKKILEEVSAGGSAGGSAGGS [r4_16_TrMRF]	0.416 ± 0.031	-0.726 ± 0.44

— the supplement of paper PMC12764529
